Laboratory results as given in patent publication US20220177584A1 (Janssen / Centocor, published 2022).

Molecular target: cynomolgus monkey GPRC5D (cynomolgus monkey)
Experiment: cell-based or functional assay

B1: talquetamab (bispecific antibody, human IgG4 S228P, lambda, F234A L235A)
heavy 1: not shown
light 1: DIQMTQSPSSLSASVGDRVTITCKASQNVATHVGWYQQKPGKAPKRLIYSASYRYSGVPSRFSGSGSGTEFTLTISNLQPEDFATYYCQQYNRYPYTFGQGTKLEIKKAAPSVTLFPPSSEELQANKATLVCLISDFYPGAVTVAWKGDSSPVKAGVETTTPSKQSNNKYAASSYLSLTPEQWKSHRSYSCQVTHEGSTVEKTVAPTECS
heavy 2: EVQLVESGGGLVQPGGSLRLSCAASGFTFNTYAMNWVRQAPGKGLEWVARIRSKYNNYATYYAASVKGRFTISRDDSKNSLYLQMNSLKTEDTAVYYCARHGNFGNSYVSWFAYWGQGTLVTVSSASTKGPSVFPLAPCSRSTSESTAALGCLVKDYFPEPVTVSWNSGALTSGVHTFPAVLQSSGLYSLSSVVTVPSSSLGTKTYTCNVDHKPSNTKVDKRVESKYGPPCPPCPAPEAAGGPSVFLFPPKPKDTLMISRTPEVTCVVVDVSQEDPEVQFNWYVDGVEVHNAKTKPREEQFNSTYRVVSVLTVLHQDWLNGKEYKCKVSNKGLPSSIEKTISKAKGQPREPQVYTLPPSQEEMTKNQVSLTCLVKGFYPSDIAVEWESNGQPENNYKTTPPVLDSDGSFLLYSKLTVDKSRWQEGNVFSCSVMHEALHNHYTQKSLSLSLGK
light 2: QTVVTQEPSLTVSPGGTVTLTCRSSTGAVTTSNYANWVQQKPGQAPRGLIGGTNKRAPGTPARFSGSLLGGKAALTLSGVQPEDEAEYYCALWYSNLWVFGGGTKLTVLGQPKAAPSVTLFPPSSEELQANKATLVCLISDFYPGAVTVAWKADSSPVKAGVETTTPSKQSNNKYAASSYLSLTPEQWKSHRSYSCQVTHEGSTVEKTVAPTECS
in vivo pharmacological activity, cynomolgus monkey against human: ~100 fold lower
